Data published in patent US20250009896A1, “SUPR[…] BASED VIRAL […] CAPTURE FOR PREVENTION AND THERAPY OF VIRAL INFECTION” (The Johns Hopkins University, priority 2023, published 2025).

Experiments:
[1] = target: T1, Recombinant human angiotensin-converting enzyme 2 (ACE2) protein, carrier-free (R&D Systems) (human), Q9BYF1
[2] = target: T1, Recombinant human …; experiment: cell-based or functional assay
[3] = target: T1, Recombinant human …; remark: listed apart in the source
[4] = target: T1, Recombinant human …; experiment: calculated reference value for the zeta potential of the mixture

T1 sequence (Q9BYF1 18-740 limits assumed): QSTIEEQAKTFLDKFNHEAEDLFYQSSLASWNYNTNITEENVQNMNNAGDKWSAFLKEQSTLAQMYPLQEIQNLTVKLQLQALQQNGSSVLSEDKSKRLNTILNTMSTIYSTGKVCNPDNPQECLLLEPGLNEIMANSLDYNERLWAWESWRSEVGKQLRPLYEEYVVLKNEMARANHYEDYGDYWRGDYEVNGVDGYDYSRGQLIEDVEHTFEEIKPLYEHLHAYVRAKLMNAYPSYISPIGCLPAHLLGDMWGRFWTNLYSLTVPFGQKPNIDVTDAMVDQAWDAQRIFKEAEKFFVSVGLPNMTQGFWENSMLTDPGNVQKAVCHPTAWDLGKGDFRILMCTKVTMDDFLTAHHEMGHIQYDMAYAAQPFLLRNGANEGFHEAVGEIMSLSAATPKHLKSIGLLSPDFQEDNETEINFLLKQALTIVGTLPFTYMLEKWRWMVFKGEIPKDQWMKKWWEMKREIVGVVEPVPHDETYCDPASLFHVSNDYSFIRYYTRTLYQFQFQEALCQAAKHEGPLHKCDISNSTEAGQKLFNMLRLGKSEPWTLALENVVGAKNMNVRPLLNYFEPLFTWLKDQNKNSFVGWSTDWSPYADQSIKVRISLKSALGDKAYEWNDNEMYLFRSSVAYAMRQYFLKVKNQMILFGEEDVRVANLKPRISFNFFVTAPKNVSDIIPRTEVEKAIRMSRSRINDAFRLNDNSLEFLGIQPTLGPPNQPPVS

Row | Binder | zeta potential of the 20:1 filaments after addition of ACE2 (bar '20:1+ACE2'); the sheet prints -31.9 for '20:1' without ACE2 (** between the two) and -29.4 for 'Filler' alone [1] [mV] | ACE2 enzymatic inhibition at 0 min incubation [2] [%] | inhibition of added ACE2 (initial velocity relative to free ACE2) [2] [%] | zeta potential of the mixture, measured [3] [mV] | intensity-averaged zeta potential calculated assuming no interaction [4] [mV]
1 | ACE2-docking supramolecular filaments (20:1 molar ratio of Filler to Ligand), without ACE2 (modifications not checked) peptide 1: VVVGEE peptide 2: VVVGKKGGGDYSHCSPLRYYPWWKCTYPDPEGGG | -36.7 | 83 | 93 | – | –
2 | VVVGKKGGGDYSHCSPLRYYPWWKCTYPDPEGGG (modifications not checked) [ACE2-binding Ligand peptide amphiphile (C12-VVVGKK-GG-OEG4-DX600)] | – | – | – | -25.1 | -17.6
